Experimental data as given in the supplement of paper PMC9112550, “Optimization of the antimicrobial peptide Bac7 by deep mutational scanning” (BMC Biology, 2022).

Tested on: Escherichia coli TOP10
Test: shrunken log2 fold change of peptide-encoding DNA abundance (4.5 h post-induction vs induction); higher = less antimicrobial activity (less host growth inhibition)
Conditions: time post-induction: 4.5 h; library: site-saturation at positions 5, 18, 19, 20
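Also: peptides expressed intracellularly from a pBAD plasmid library in pooled LB shake-flask culture, induced with 0.3% L-arabinose, DNA abundance read by NGS, three biological replicates, DESeq2 with apeglm shrinkage.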

RRIRIRPPRLPRPRPRPIHEPRP and RRIRKRPPRLPRPRPRPDFTPRP are within 0.2 log units of each other in “shrunken log2 fold change” value: -0.316 for the first, -0.206 for the second.

RRIRPRPPRLPRPRPRPLTWPRP and RRIRERPPRLPRPRPRPTAYPRP are within 0.2 log units of each other in “shrunken log2 fold change” value: 0.0214 for the first, -0.166 for the second.

RRIRCRPPRLPRPRPRPFPKPRP and RRIRRRPPRLPRPRPRPRCDPRP are within 0.2 log units of each other in “shrunken log2 fold change” value: 0.131 for the first, 0.306 for the second.

Compared with RRIRCRPPRLPRPRPRPWGYPRP, RRIRIRPPRLPRPRPRPESHPRP is higher in “shrunken log2 fold change” value: -0.372 for the first, -0.0755 for the second.

Going from RRIRLRPPRLPRPRPRPSYKPRP to RRIRCRPPRLPRPRPRPWETPRP, the “shrunken log2 fold change” value rises from -0.456 to 0.323.

First: RRIRSRPPRLPRPRPRPKLRPRP
Second: RRIRLRPPRLPRPRPRPYIMPRP
The “shrunken log2 fold change” value of the first is higher: 0.111 for the first, -1.45 for the second.

First: RRIRWRPPRLPRPRPRPAWLPRP
Second: RRIRERPPRLPRPRPRPIQKPRP
The “shrunken log2 fold change” value of the first is higher: 0.61 for the first, -0.184 for the second.

Going from RRIRFRPPRLPRPRPRPINKPRP to RRIRLRPPRLPRPRPRPVYLPRP, the “shrunken log2 fold change” value falls from -0.582 to -1.14.

RRIRQRPPRLPRPRPRPPWMPRP and RRIRGRPPRLPRPRPRPCYNPRP are within 0.2 log units of each other in “shrunken log2 fold change” value: 0.172 for the first, 0.0333 for the second.

RRIRERPPRLPRPRPRPEFWPRP and RRIRERPPRLPRPRPRPLEKPRP are within 0.2 log units of each other in “shrunken log2 fold change” value: 0.159 for the first, 0.094 for the second.

Going from RRIRPRPPRLPRPRPRPEFKPRP to RRIRQRPPRLPRPRPRPNVYPRP, the “shrunken log2 fold change” value falls from 0.26 to -0.222.

First: RRIRSRPPRLPRPRPRPITWPRP
Second: RRIRQRPPRLPRPRPRPNRHPRP
The “shrunken log2 fold change” value of the first is lower: -0.284 for the first, 0.115 for the second.

First: RRIRLRPPRLPRPRPRPDDEPRP
Second: RRIRARPPRLPRPRPRPQNWPRP
The “shrunken log2 fold change” value of the first is lower: -0.0861 for the first, 0.315 for the second.

RRIRHRPPRLPRPRPRPSVPPRP and RRIRHRPPRLPRPRPRPREYPRP are within 0.2 log units of each other in “shrunken log2 fold change” value: -0.0518 for the first, -0.0589 for the second.

First: RRIRYRPPRLPRPRPRPCPCPRP
Second: RRIRCRPPRLPRPRPRPTPQPRP
The “shrunken log2 fold change” value of the first is lower: 0.0185 for the first, 0.794 for the second.

RRIRSRPPRLPRPRPRPAAKPRP and RRIRKRPPRLPRPRPRPQGSPRP are within 0.2 log units of each other in “shrunken log2 fold change” value: 0.155 for the first, -0.0103 for the second.

RRIRWRPPRLPRPRPRPKRRPRP and RRIRARPPRLPRPRPRPSKQPRP are within 0.2 log units of each other in “shrunken log2 fold change” value: 0.0884 for the first, 0.0216 for the second.

Going from RRIRIRPPRLPRPRPRPRKQPRP to RRIRWRPPRLPRPRPRPEYPPRP, the “shrunken log2 fold change” value rises from -0.00244 to 0.208.

Compared with RRIRERPPRLPRPRPRPIEDPRP, RRIRIRPPRLPRPRPRPTAWPRP is higher in “shrunken log2 fold change” value: -0.199 for the first, 0.152 for the second.

Compared with RRIRFRPPRLPRPRPRPNIHPRP, RRIRTRPPRLPRPRPRPERPPRP is higher in “shrunken log2 fold change” value: -0.814 for the first, 0.267 for the second.

Going from RRIRWRPPRLPRPRPRPIAMPRP to RRIRCRPPRLPRPRPRPWNVPRP, the “shrunken log2 fold change” value falls from 0.256 to -0.476.

RRIRHRPPRLPRPRPRPTREPRP and RRIRPRPPRLPRPRPRPDGSPRP are within 0.2 log units of each other in “shrunken log2 fold change” value: 0.0175 for the first, -0.00717 for the second.

RRIRIRPPRLPRPRPRPDKPPRP and RRIRERPPRLPRPRPRPMKAPRP are within 0.2 log units of each other in “shrunken log2 fold change” value: -0.0335 for the first, -0.00245 for the second.

RRIRTRPPRLPRPRPRPFHCPRP and RRIRQRPPRLPRPRPRPGDTPRP are within 0.2 log units of each other in “shrunken log2 fold change” value: -0.179 for the first, -0.223 for the second.

Compared with RRIRMRPPRLPRPRPRPGPKPRP, RRIRLRPPRLPRPRPRPPNPPRP is lower in “shrunken log2 fold change” value: 1.81 for the first, 0.423 for the second.

RRIRCRPPRLPRPRPRPAYRPRP and RRIRHRPPRLPRPRPRPIGNPRP are within 0.2 log units of each other in “shrunken log2 fold change” value: -0.194 for the first, -0.199 for the second.

Compared with RRIRERPPRLPRPRPRPPGFPRP, RRIRMRPPRLPRPRPRPTTIPRP is lower in “shrunken log2 fold change” value: 0.479 for the first, -0.198 for the second.

Going from RRIRIRPPRLPRPRPRPISIPRP to RRIRERPPRLPRPRPRPNFIPRP, the “shrunken log2 fold change” value falls from 0.0772 to -0.442.

Compared with RRIRARPPRLPRPRPRPQEYPRP, RRIRNRPPRLPRPRPRPHVKPRP is lower in “shrunken log2 fold change” value: 0.0643 for the first, -0.17 for the second.

RRIRGRPPRLPRPRPRPGSLPRP and RRIRPRPPRLPRPRPRPGVEPRP are within 0.2 log units of each other in “shrunken log2 fold change” value: 0.421 for the first, 0.249 for the second.

Compared with RRIRFRPPRLPRPRPRPGQLPRP, RRIRLRPPRLPRPRPRPMNGPRP is lower in “shrunken log2 fold change” value: -0.0429 for the first, -0.618 for the second.

First: RRIRCRPPRLPRPRPRPWRFPRP
Second: RRIRCRPPRLPRPRPRPRWNPRP
The “shrunken log2 fold change” value of the first is lower: 0.145 for the first, 2.15 for the second.

Going from RRIRRRPPRLPRPRPRPGPEPRP to RRIRWRPPRLPRPRPRPDGSPRP, the “shrunken log2 fold change” value falls from 0.662 to -0.0311.

RRIRERPPRLPRPRPRPCFQPRP and RRIRWRPPRLPRPRPRPYLWPRP are within 0.2 log units of each other in “shrunken log2 fold change” value: -0.25 for the first, -0.153 for the second.

Compared with RRIRKRPPRLPRPRPRPWGDPRP, RRIRRRPPRLPRPRPRPTEYPRP is lower in “shrunken log2 fold change” value: 0.499 for the first, 0.0398 for the second.

RRIRFRPPRLPRPRPRPDPQPRP and RRIRVRPPRLPRPRPRPPLMPRP are within 0.2 log units of each other in “shrunken log2 fold change” value: 0.0361 for the first, 0.175 for the second.

RRIRRRPPRLPRPRPRPHMAPRP and RRIRLRPPRLPRPRPRPRHVPRP are within 0.2 log units of each other in “shrunken log2 fold change” value: -0.128 for the first, -0.127 for the second.

In the case of RRIRHRPPRLPRPRPRPVILPRP, the “shrunken log2 fold change” value is reported as -1.12.
